The source of these data is publication PMC6981927, “In Situ Proteolysis Condition-Induced Crystallization of the XcpVWX Complex in Different Lattices” (International Journal of Molecular Sciences, 2020).

Sequences and labels used below:
T1: XcpX (29–313), soluble truncation of the minor pseudopilin XcpX (Pseudomonas aeruginosa PAO1, UniProt Q00518 29-313)
T1 construct: XcpX, minor pseudopilin of the type II secretion system, Pseudomonas aeruginosa PAO1, residues 29-313; Tags removed by TEV protease; residues left from the TEV site and the cloning site may remain at the N-terminus; In the crystals the complex was under in situ chymotrypsin proteolysis; some loops are missing in the model of 6UTU; source: E. coli (BL21 (DE3); results say codon plus cells), …
T1 sequence: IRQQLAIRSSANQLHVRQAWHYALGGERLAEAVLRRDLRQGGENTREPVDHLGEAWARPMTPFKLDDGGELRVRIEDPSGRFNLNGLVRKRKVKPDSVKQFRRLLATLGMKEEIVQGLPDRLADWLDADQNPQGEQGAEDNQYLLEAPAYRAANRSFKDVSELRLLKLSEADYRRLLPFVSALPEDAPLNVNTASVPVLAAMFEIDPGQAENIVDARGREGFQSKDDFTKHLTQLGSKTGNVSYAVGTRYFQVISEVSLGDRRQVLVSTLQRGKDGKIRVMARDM

B1: XcpW (28–237), soluble truncation of the minor pseudopilin XcpW (domain or fragment)
chain: RMFDSVMQTDQATRVQEQRMRELVRAMGALERDLTQAVERPVRDELGDNRGAFLSEGENDQIVEFTRGGWRNPLGQARSRLQRVRWSLSGETLERRYWLVLDRAQDSKPRVQQVLDGVTALSWRFLDKEHNWQGHWPTDEGSEEERLESLPLAVEMTLEHRHYGKLVRVWRLLDPPLKQDQPQGQPGGENGENGEGGVPQPPEGMPGAPE
notes: XcpW, minor pseudopilin of the type II secretion system, Pseudomonas aeruginosa PAO1, residues 28-237; Tags removed by TEV protease; residues left from the TEV site and the cloning site may remain at the N-terminus; In the crystals the complex was under in situ chymotrypsin proteolysis; source: E. coli (BL21 (DE3); results say codon plus cells), purified (Ni-NTA, TEV cleavage, second Ni-NTA, SEC …)
B2: XcpV (28–129), soluble truncation of the minor pseudopilin XcpV (domain or fragment)
chain: SASARSLQNASRLEDKTLAMWIADNRLNELQLEQTPPSSGRNQGELEFAGRRWEWRTQVDSTAEQDMRRVIVWVAAKPLGRERGSIEERAAARLVGFLGSQP
notes: XcpV, minor pseudopilin of the type II secretion system, Pseudomonas aeruginosa PAO1, residues 28-129; Tags removed by TEV protease; residues left from the TEV site and the cloning site may remain at the N-terminus; In the crystals the complex was under in situ chymotrypsin proteolysis; loops 59-66 and 103-113 are missing in the model of 6UTU; source: E. coli (BL21 (DE3)); results say codon plus …

Assay [1] has as its target T1, XcpX (29–313), soluble truncation of …. Put plainly: SEC; three purified tag-free pseudopilins mixed at a molar ratio of 1.5:1:1 (XcpV:XcpW:XcpX), 4 °C overnight; Superdex 75, 25 mM HEPES pH 7.0, 150 mM NaCl, 1 mM CaCl2; peak fractions analysed by SDS-PAGE. The settings on record: both partners purified. (In general: In gel filtration, larger molecules generally elute earlier.)

Assay [2] has as its target B1. The assay is described as above. The settings on record: both partners purified.

Broadly, the stoichiometry N is a count of units in the complex or per binding partner.

Consider B1, for which the “stoichiometry N” value in assay [1] was ~1.

Consider B2, for which the “stoichiometry N” value in assay [2] and in assay [1] was ~1 each time.
